In the nanobody polyreactivity screen of Harvey et al. (2022):

Test: yeast display, Sf9 membrane polyspecificity reagent, FACS + sequencing; frameworks hold sequencing errors
In short: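 Using colony PCR, genes from sorted yeast display clones were amplified, then sequenced on MiSeq at 2 × 250 and filtered by CDR length. The clones had been stained with 10% biotinylated, detergent-solubilized Sf9 membrane reagent for 1 hour at 4 °C and sorted by FACS into low and high (top ~1%) gates on anti-HA and streptavidin fluorescence. Polyreactivity labels come from the gate of origin.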

Sequence: QVQLVQSGGGLVQAGGSLRLSCAAYGSTFVRYVKGWYRQAPGKERELVAAISRRGGSTYYADSVKGRFRISRDNAKNTVFLQMNSLKPEDTAVSYCARTVGYRTLLESDSWGQGTQVTVSS
- polyreactivity (PSR sort gate): high polyreactivity

Sequence: QVQLVQSGGGLVQAGGSLRLSCSASGRIFSAYAMGWYRPAPGKERELVAAITWSGANTDYADSVKGRFTMSRDNAKYTVYLQMNSLKPEDTAVYYCNASVGRDSAYDYWGQGTQVTVSS
- polyreactivity (PSR sort gate): low polyreactivity

Sequence: QVQLVQSGGVLVQAGGSLRLSCAASGFIFNTYAMGWYRPAPGKERELVAAIDGRGGTTYYADSVKGRFTISRDYAKNTVYLQMHSLKPEDTAVYYCAARYQRLGIRYGYWGQGTQVTVSS
- polyreactivity (PSR sort gate): high polyreactivity

Sequence: QVQLVQSGVGLDQAGGSLRLSCAASGSISSQNAMGWYRQAPGKESELVAAISWIGGSTYYADSVKGRFTISRDNAKNTVYLQMNSLKPEDTAVYYCAKDRASGFKYYYWGLGTQVTVSS
- polyreactivity (PSR sort gate): low polyreactivity

Sequence: QVQLVQSGVGLVQAGGSLRLSCAASGSIFSYYVMGWYRQAPGKERELVAAISWSGGSTYYADSVKGRFTISRDNAKNTVYLQMNSLKPEDTAVYYCAAGTYPYYWVQGTQVTVSS
- polyreactivity (PSR sort gate): low polyreactivity

Sequence: QVQLVQSRGGLVQAGGSLRLSCSASGFIFIYNVMGWYRQAPGKERDMVAAINRGGSTKYADSVKGRFTISRDNAKITVYLQMNSLKPEDSAVYYCAARYDGSRYHYDGYDYWGQGTQVTVSS
- polyreactivity (PSR sort gate): low polyreactivity

Sequence: QVQLVQSVGGLVHAGGSLRLSCAASGRTYGVYAMGWYRQAPGKERELVAAITYSGGSTYYADSVKGRFTISRDNAKNTVYLQMNSLKPEDTAVYYCAAETRVGLYYVREVYYWGQGTQVTVSS
- polyreactivity (PSR sort gate): low polyreactivity

Sequence: QVQLVVSGGGLVQAGGSLRISCAASGITFGRYAMGRYRPAPGKERELVAAISWSGGSTYYADSVKGRFTISRDNAKNTVFLQMNSLKPEDTAVYYCALEWYYTSYHIRFYRDNYWGQGTQVTVSS
- polyreactivity (PSR sort gate): high polyreactivity

Sequence: QVQLVVSGGGLVQAGGSLRLSCAASGIIFVQYTMGWYRQAPGQERELDAAITRGGNTYYADSVKGRFTISRDNAKNTVYLQMNSLKPEATAVYYCNKAYWYANLRYRTGVKLQFYYWGQGTQVNVSS
- polyreactivity (PSR sort gate): high polyreactivity

Sequence: QVQLVVSGGGLVQAGGSLRLSCAASGITFFPYAMGWYRQAPGKERLLVASISDRGGTNYADSVKGRFTISRDNAKNTVYLQMNSLKPEDTAVYYSASDASTYAYYGGDYWGQGTQVTVSS
- polyreactivity (PSR sort gate): low polyreactivity

Sequence: QVQLVVSGGGLVQAGGSLRLSCAASGITFYEYAMGWYRQAPGKERELVAAISSSGCTTYYADSVKGLFTISRDNAKNTVYLQLNSLKPEDTAVYYCAVGQRFAIWGPQGSYFYFESDYWGQGTQVTVSS
- polyreactivity (PSR sort gate): low polyreactivity

Sequence: QVQLVVSGGGLVQAGGSLRLSCAASGRIFLWNAMGWYRQAPGKERDLVAAISSGGGTNYADSVKGRFTISRDNAKNSVYLQMNSLKPEDTAVYYCAARRTYRFGWGQGTQVTVSS
- polyreactivity (PSR sort gate): high polyreactivity

Sequence: QVQLVVSGGGLVQAGGSLRLSCAASGSIFVPYAMGWYRQAPGKEREFVAAITRSSGSTYYADSVKGRFTISRDNAKNTVYLQMNSLKPEDTAVYYCAADFLLEFDYWGQGTQVTVSS
- polyreactivity (PSR sort gate): low polyreactivity

Sequence: QVQLVVSGGGLVQAGGSLRLSCAASGSIFYRNAMGWYRQAPGKDRELVAAISFSGGSTYYADSVKARFSISRDNAKNTVYLQMNSLKPEDTAVYYCAAEAYPSWFYVITGFGIYDYWGQGTQGTVSS
- polyreactivity (PSR sort gate): high polyreactivity

Sequence: QVQLVVSGGGLVQAGGSLRLSWAASGIIFYEYAMGWYRQAPGTERELVAAITWSGRTYADSVKGRFTISRDNAKNTVYLQMNSLKPEDTAVYYCNAVYFGGPFFGQYNYWGQGTQVTVSS
- polyreactivity (PSR sort gate): low polyreactivity

Sequence: QVQLVVSGGGLVQEGGSLRLSCAAYGNTFFVYAMGGYRQAPGKERELDASITLSGDTTYYADSVKGRFTISRDNAKNPVYLQMNSLKPEDNAVYYCAAKDIRYDDDYWGQGTQVNVSS
- polyreactivity (PSR sort gate): low polyreactivity

Sequence: QVQLVYSGGGLVQAGGSLRLSCAASGIIFGVNAMGWYRQAPGKERELVAAISSSGGSTYYADSVKGRFTISRDNAKNTVYLQMNSLKPEDTAVYYCAASYYHYAPFDYWGQGTQVTVSS
- polyreactivity (PSR sort gate): high polyreactivity

Sequence: QVQLVYSGGGLVQAGGSLRLSCAASGSTFYRYAMGWYRQAPGKERELVATITRSGGSTYYADSVKGRFTISRDNAKNTVYLQMNRLKPEDTAVYYCAVRLWFYYNYWGQGTQVTVSS
- polyreactivity (PSR sort gate): low polyreactivity

Sequence: QVQNVDSGGGLVQAGGSLRLSCPPSGISYRGYAMGWYRQAPGKERELVAAISVRGASTYYAASVKGRFTISRDNAKYTVYLPMNSLKPEDTAVYYCGATRPSWRYNYWGQGTEVTVSS
- polyreactivity (PSR sort gate): high polyreactivity

Sequence: QVQPQESGVGLVQAGGSLRLSCAASGTIFAFQTMGWYRQAPGKERELVASITYGSSTNYADSVKGRFTISRDNAKNTVYLLMNRLKPEDTAVYYCAVPQAQYYYDYWGQGTQVTVSS
- polyreactivity (PSR sort gate): high polyreactivity

Sequence: QVQPVESGGGLVQAGGSLRLSCAASGFIFSSYAMGWYRQAPGKERELVAAITSGGSTNYADSVKGRFTISRDNAKNTVYLQMNSMKPEDTAVYYCATVPGGSWFFHWWSTGGDDEYWGQGTQVTVSS
- polyreactivity (PSR sort gate): low polyreactivity

Sequence: QVQPVESGGGLVQAGGSLRLSCAASGIIFISYDMGWYRQAPGKERELVARINWDGGSTYYADSVKGRFTISRDNAKNTVYLQMNSLKPEDTAVYYCAAGFVGTNYPLQGFSYEYWGQGTQVTVSS
- polyreactivity (PSR sort gate): low polyreactivity

Sequence: QVQPVESGGGLVQAGGSLRLSCDASGRIFYEYAMGRSRQAPGKERELVAISTSGGNTYYADSVKGRFTISRDNAKNTVYLQMKSLKPEDTEVYYCAKRGYRAYYWGQGTLVTVSS
- polyreactivity (PSR sort gate): high polyreactivity

Sequence: QVQQLESGGGLVQAGGSLRLSSAASGTIFRISDMGSYRQAPGTEREFVAAITYGANTYYADSGKGRFTISRDNAKNTVYRQMNSLKPDDTAVYDCAVPPVKESILDYWGQGTQVTVSR
- polyreactivity (PSR sort gate): low polyreactivity

Sequence: QVQQQESGGGLVQAGGSLRLSCAASGTIFQLTVMGRYRQASGKERELVASIDYGGNTNYADSVKGRFTISRDNAKNTVYLQMNSLKPEDTAVYYCEASSDSWTTHPYWGQGTQVTVSS
- polyreactivity (PSR sort gate): low polyreactivity

Sequence: QVQQQESGGGLVQAGVSLRLSWAASGTIFQLTVMGRYRQAPGKEREVVASIDYGGNTNYADSVKGRFTISRDNAKNTVYRQMNSLKPEDTAVYYCAASSDSSTTHPYWGQGTHVTVSS
- polyreactivity (PSR sort gate): low polyreactivity

Sequence: QVQRQESGGGLVQAGDSQRLSCAPSGNIFRFTDMGWYRQAPGQERELVAAINAGSTTYYADSVKGRFTISRDNAKNTVYLQMNSLKPEDTAVYYCAVYYLGSGTFGYWGQGAQVTVSS
- polyreactivity (PSR sort gate): high polyreactivity

Sequence: QVQRVDSGGGLVQAGGSLRLSCAASGFTFAVYAMGWYRQSPGKERELVAAISRSGTRTYYADSVKGRFTISRDNAKNTVYLQMNSLKPEDTAVYYCAADKYRLGYDYWGQGTQLTVSS
- polyreactivity (PSR sort gate): low polyreactivity

Sequence: QVQRVDSRGGLVQAGGSLRLSCAASGRIFRPNAMGWYRQAHGKQRELVAAITSNGGRTYYADSVKGRFTISRDNAKYTVYLQMNSLKPEDTAVYYCNAAPFRSGDGYWGQGTQVTVSS
- polyreactivity (PSR sort gate): high polyreactivity

Sequence: QVQRVESAGGLVQAGGSLRLSCAASGSTFLYNAMGWYRQAPGKERELVAAISWSGGSTYYADSVKGRFTISRDNAKNTVYLQMNSLKPEDTAVYYCAKPRSWGYNWGQGTQVTVSS
- polyreactivity (PSR sort gate): high polyreactivity

Sequence: QVQRVESGGALVQAGGSLRLSCAASGRIFGGYAMGWYRQAPGKERELVAAISSRGGSTYYADSVKGRFTISRDNAKNTVYLQMNSLKPEDTAVYYCAADGRVKGWGQGTQVTVSS
- polyreactivity (PSR sort gate): high polyreactivity

Sequence: QVQRVESGGALVQAGGSLRLSCAASGSTFYAYAMGWYRPAPGKERELVAAITYRDGRTYYADSVKGRFTISRDNAKNTVYLQMNRLKQEDTAVYYCARKTGFTVRRYDYWGHGTQVTVSS
- polyreactivity (PSR sort gate): high polyreactivity
